What was measured:
[1] = molecular target: T1, mouse His-laminin-α4 (mouse, UniProt P97927 826-1816, limits assumed); assay: Biacore SPR
T1 construct: Bought His-tagged recombinant protein; also called Murine LAMA4; recombinant mouse LAMA4-His
T1 sequence (looked up): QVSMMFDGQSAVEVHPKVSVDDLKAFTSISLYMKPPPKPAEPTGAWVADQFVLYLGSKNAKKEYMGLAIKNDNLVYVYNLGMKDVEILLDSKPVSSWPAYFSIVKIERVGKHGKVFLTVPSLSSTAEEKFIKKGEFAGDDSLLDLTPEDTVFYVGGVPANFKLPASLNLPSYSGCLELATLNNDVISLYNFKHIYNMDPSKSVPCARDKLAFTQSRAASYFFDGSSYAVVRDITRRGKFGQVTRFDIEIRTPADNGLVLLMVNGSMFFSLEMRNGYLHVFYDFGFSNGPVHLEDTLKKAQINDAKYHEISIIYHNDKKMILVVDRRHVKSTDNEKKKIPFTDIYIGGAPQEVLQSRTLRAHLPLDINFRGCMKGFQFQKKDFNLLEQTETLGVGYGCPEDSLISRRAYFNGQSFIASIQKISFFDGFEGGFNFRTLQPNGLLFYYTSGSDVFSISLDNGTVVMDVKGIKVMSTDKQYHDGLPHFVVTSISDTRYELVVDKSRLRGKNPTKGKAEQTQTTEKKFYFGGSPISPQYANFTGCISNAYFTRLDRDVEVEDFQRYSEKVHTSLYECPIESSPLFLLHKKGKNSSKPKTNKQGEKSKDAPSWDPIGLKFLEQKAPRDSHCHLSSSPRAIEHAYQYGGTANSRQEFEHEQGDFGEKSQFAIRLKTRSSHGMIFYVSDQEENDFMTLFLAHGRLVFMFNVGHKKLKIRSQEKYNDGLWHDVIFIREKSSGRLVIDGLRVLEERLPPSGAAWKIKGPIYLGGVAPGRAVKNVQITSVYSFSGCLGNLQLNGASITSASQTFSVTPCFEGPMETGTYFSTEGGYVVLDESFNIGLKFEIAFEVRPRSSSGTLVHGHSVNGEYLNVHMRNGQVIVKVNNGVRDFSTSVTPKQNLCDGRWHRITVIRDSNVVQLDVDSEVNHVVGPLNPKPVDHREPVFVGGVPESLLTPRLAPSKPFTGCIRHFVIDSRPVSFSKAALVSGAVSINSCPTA

[2] = molecular target: T2, human His-laminin-α4 (human, UniProt Q16363 833-1823, limits assumed); assay: Biacore SPR
T2 construct: Bought His-tagged recombinant protein (R & D Systems); also called Human LAMA4; human His-laminin-α4 (R & D Systems)
T2 sequence: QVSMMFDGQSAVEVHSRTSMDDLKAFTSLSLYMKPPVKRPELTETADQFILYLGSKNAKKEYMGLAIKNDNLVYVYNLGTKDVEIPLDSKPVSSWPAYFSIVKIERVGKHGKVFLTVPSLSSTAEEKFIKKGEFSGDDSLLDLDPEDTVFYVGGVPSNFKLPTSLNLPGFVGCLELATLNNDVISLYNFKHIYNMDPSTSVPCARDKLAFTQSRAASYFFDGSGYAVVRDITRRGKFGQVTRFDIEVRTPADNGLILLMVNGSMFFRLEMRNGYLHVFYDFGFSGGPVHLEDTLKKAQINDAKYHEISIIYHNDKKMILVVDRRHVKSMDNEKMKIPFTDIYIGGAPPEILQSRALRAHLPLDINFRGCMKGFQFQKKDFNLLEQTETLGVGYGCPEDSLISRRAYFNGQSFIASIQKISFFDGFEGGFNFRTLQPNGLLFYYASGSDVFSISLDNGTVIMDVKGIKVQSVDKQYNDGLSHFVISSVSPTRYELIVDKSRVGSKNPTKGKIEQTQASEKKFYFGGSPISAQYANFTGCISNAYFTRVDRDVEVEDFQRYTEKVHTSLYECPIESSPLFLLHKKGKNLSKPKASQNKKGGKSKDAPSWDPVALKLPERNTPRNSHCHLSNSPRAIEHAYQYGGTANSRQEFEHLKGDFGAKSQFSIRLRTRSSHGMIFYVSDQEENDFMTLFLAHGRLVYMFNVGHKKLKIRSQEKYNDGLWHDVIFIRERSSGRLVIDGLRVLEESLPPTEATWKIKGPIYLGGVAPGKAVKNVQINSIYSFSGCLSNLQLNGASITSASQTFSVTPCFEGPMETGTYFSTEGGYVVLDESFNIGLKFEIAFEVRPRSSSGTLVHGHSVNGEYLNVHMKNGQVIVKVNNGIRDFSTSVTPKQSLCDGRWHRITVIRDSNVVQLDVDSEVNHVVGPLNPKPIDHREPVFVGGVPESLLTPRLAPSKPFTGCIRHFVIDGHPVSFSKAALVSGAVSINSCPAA

[3] = molecular target: T3, LGde2, human LAMA4 G domain with LG2 deleted, displayed on 293 cells (human, UniProt Q16363 830-1821, limits assumed); assay: flow cytometry on 293 cells displaying LAMA4 G-domain variants; % binding
T3 construct: pDisplay construct on 293 cells; vector tags and anchor not written here; also called LGde2 (LG13)
T3 sequence: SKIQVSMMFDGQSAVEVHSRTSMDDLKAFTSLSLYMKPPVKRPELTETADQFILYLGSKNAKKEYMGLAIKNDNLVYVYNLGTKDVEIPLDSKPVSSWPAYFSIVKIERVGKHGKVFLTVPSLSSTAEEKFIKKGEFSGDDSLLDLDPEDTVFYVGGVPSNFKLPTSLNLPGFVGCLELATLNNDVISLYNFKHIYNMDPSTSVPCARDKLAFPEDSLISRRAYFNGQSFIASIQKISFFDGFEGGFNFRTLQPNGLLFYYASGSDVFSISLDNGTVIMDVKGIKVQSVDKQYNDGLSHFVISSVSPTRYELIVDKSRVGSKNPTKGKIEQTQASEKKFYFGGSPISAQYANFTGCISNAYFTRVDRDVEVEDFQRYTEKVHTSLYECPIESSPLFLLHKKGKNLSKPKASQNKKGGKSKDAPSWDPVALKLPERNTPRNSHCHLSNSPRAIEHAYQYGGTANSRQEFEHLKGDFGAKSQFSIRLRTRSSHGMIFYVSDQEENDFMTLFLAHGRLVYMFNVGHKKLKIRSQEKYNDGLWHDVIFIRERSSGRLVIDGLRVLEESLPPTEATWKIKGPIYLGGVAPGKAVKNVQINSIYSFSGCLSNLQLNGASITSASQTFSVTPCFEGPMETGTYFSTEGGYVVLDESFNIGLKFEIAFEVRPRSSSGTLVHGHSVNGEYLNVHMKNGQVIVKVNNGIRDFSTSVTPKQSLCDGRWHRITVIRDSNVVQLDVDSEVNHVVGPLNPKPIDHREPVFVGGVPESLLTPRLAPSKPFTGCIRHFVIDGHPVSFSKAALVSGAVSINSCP
Text: LGde1 has a full-length G domain (i.e., LG1-5) with LG1 deleted, LGde2 has a full-length G domain with LG2 deleted, and LGde3 has a full-length G domain with LG3 deleted. Recombinant MCAM-Fc protein was able to specifically bind 293 cells expressing LAMA4 variants LG1-5, LG1-3, and LGde 1 (LG23), but not 293 cells expressing LAMA 4 variants LG4-5, LGde2 (LG13), or LGde3 (LG12).

[4] = molecular target: T4, recombinant laminin 411 (human, UniProt P07942 22-1786; P11047 34-1609, limits assumed); assay: flow cytometric blocking assay; antibody pre-incubated with 650-labeled laminin 411; blocked partner: human MCAM on CHO cells; MFI
T4 construct: also called LAMA4 in complex with its gamma1 and beta1 chains
T4 sequence (P07942 22-1786 limits assumed, chain 2 of 2): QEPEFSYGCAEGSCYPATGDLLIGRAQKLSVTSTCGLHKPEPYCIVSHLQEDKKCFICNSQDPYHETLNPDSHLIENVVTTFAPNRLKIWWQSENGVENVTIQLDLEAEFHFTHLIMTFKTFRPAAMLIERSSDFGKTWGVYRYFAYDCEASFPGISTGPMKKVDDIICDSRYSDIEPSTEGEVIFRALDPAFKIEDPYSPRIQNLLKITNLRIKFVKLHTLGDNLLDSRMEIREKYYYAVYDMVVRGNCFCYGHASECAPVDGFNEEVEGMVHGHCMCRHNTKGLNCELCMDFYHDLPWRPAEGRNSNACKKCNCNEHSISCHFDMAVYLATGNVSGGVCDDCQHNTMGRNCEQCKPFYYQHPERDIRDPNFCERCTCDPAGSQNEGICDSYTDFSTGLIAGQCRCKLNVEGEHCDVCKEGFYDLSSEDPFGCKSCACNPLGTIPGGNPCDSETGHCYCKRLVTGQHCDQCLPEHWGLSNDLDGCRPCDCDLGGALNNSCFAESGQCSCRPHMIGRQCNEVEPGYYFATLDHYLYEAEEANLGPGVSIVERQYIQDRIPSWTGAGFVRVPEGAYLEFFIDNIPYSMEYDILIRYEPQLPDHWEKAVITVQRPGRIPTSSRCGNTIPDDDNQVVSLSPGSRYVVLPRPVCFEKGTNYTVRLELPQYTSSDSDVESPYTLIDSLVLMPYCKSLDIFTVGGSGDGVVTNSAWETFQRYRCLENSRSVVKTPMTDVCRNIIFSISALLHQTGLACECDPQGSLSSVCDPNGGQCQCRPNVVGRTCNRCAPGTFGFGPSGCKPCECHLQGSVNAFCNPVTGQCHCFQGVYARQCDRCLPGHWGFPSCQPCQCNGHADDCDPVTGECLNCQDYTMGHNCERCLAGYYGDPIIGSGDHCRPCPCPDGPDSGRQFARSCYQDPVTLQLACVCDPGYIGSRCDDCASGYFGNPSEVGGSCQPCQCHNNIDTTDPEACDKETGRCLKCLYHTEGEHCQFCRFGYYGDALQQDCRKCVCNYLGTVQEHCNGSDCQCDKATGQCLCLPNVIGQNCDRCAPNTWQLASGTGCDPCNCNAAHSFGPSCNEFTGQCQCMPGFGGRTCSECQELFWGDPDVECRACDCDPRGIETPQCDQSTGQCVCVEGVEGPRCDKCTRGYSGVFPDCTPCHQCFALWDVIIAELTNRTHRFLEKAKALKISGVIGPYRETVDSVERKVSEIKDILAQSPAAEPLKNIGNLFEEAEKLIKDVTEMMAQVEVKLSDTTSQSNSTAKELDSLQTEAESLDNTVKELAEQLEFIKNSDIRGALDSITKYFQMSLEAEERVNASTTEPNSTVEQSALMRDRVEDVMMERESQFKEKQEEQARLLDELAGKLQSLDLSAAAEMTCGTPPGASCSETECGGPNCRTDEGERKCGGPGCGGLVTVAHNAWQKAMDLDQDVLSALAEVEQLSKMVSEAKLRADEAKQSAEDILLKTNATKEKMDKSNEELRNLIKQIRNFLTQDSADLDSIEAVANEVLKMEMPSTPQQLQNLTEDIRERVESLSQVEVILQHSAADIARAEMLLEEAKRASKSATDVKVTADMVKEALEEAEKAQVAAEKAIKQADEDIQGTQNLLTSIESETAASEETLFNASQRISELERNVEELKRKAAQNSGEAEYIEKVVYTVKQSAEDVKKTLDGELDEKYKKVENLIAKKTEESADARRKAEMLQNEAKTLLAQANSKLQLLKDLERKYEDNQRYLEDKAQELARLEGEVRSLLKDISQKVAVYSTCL
T4 sequence (P11047 34-1609 limits assumed, chain 3 of 2): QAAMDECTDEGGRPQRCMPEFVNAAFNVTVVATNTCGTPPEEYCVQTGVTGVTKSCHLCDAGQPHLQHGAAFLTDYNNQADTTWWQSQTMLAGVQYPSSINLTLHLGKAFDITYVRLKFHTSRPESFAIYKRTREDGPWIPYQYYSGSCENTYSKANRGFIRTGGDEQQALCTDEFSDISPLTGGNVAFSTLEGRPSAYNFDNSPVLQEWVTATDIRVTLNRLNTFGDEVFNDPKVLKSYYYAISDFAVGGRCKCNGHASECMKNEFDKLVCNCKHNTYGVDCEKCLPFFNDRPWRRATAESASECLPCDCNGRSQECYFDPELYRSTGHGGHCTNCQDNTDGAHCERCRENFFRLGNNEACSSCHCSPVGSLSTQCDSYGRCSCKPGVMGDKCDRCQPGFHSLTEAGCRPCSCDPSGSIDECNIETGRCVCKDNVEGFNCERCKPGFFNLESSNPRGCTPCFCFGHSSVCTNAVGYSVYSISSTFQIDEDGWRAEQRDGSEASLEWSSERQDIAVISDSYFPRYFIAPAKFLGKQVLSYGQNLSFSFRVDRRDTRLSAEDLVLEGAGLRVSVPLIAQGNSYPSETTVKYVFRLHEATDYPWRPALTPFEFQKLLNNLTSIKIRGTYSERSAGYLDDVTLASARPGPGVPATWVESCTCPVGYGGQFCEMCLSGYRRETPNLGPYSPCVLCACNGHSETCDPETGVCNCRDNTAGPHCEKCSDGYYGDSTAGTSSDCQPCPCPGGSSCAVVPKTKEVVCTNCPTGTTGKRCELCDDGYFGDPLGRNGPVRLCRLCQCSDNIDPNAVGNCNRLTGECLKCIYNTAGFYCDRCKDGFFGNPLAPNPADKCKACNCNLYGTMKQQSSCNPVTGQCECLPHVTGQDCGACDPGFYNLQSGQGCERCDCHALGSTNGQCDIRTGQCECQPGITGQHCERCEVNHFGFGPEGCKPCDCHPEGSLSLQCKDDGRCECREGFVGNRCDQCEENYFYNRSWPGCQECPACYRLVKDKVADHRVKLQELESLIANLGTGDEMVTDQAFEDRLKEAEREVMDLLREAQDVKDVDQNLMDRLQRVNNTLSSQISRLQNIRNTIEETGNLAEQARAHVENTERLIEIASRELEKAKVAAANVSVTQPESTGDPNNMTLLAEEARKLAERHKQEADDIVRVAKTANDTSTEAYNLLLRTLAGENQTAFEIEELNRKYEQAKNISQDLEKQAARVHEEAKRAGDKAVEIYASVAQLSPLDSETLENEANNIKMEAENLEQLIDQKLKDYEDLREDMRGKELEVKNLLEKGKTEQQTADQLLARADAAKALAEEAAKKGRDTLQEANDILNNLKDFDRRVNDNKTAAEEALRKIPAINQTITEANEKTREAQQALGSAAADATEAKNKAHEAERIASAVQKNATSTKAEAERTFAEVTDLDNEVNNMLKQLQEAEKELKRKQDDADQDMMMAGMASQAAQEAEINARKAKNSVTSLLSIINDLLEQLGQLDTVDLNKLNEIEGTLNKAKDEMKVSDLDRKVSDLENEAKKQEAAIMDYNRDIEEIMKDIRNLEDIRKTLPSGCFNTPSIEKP
Description: The 19C12 variants chimeric 19C12, H2L3, H2L4, H2L6, H3L6, and isotype control were tested for their ability to block the binding of LAMA4 to its ligand MCAM (FIG. 15) and to bind LAMA4-displaying cells (FIG. 16). To test LAMA4 binding capacity, serially diluted antibodies were pre-incubated with LAMA4-displaying human 293 cells, followed by anti-human-650 secondary antibody incubation. […] Fluorescent signal was assessed via flow cytometric analyses and plotted as mean fluorescence intensity (MFI). All 19C12 variants retained their MCAM blocking and LAMA4 binding activity when compared with chimeric 19C12.
Following two washes with FACS buffer (1% FBS in PBS), cells were resuspended with 650-conjugated anti-pan-laminin antibody (1:1000; Novus Biologicals) and incubated for 20 min at 4° C., and washed again. Cells were analyzed for pan-laminin reactivity by flow cytometry using standard procedures.

[5] = molecular target: T5, human LAMA4 LG4-5 modules displayed on 293 cells (human, UniProt Q16363 1453-1821); assay: flow cytometry on 293 cells displaying LAMA4 G-domain variants, anti-human-650 secondary antibody; MFI
T5 construct: pDisplay construct on 293 cells; vector tags and anchor not written here
T5 sequence: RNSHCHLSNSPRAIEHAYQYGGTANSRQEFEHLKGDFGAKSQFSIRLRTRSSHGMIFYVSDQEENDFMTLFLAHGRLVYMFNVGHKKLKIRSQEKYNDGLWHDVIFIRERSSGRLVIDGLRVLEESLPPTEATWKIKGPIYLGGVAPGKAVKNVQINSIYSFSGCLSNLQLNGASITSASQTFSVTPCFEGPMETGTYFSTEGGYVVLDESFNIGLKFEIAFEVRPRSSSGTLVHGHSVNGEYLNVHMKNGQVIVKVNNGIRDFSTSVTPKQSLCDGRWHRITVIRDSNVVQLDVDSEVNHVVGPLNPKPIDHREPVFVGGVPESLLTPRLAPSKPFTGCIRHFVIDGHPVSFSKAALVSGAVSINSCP
Description: The 19C12 variants chimeric 19C12, H1+chiL, and H2+chiL, and buffer alone were tested for their ability to block the binding of LAMA4 to its ligand MCAM (as shown in FIG. 11) and to bind LAMA4-displaying cells (full length, LG1-3, LG4-5, or untransfected control) (as shown in FIG. 12). […] To test LAMA4 binding capacity, serially diluted antibodies were pre-incubated with LAMA4-displaying human 293 cells, followed by anti-human-650 secondary antibody incubation. Fluorescent signal was assessed via flow cytometric analyses and plotted as mean fluorescence intensity (MFI).

B1: mouse monoclonal antibody 5B5 (antibody, V domains shown)
VH: QVQLQQPGAELVKPGASVKLSCKASGYTFTSYWMHWVKQRPGRGLEWIGRIDPNSGGTKHNEKFKSKATLTVDKPSSTAYMQLSSLTSEDSAVYYCAGSPSYYDYALHYAMDYWGQGTSVTVSS
VL: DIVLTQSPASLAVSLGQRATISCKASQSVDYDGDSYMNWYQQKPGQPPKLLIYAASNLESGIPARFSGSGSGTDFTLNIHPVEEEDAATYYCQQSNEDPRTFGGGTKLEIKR
**Q.** B1 was tested. Which Kd [1] did it give?
**A.** The Kd was 5.27 nM.

**Q.** What about the koff [1] of the same binder?
**A.** The koff was 0.0116 s⁻¹.

**Q.** And the kon [1]?
**A.** Its kon is 2.2e+06 M⁻¹ s⁻¹.

**Q.** And the Kd [2]?
**A.** Its Kd is 7.33 nM.

**Q.** And the koff [2]?
**A.** The koff was 0.0105 s⁻¹.

**Q.** What about the kon [2] of the same binder?
**A.** The kon was 1.43e+06 M⁻¹ s⁻¹.

**Q.** Does B1 bind [3]?
**A.** Result: no binding

B2: chimeric 19C12 antibody (antibody, V domains shown)
VH: QVQLQQSGAELVKPGASVKISCKASGYAFSTYWMNWVKQRPGEGLEWIGQIYPGDGDTNYNGKFKGKATLTADKSSSTAYMQLSSLTSEDSAVYFCARSDGYYDYWGQGTTLTVSS
VL: NIVLTQSPASLAVSLGQRATISCRASESVDSYGTSFMHWYQQKPGQPPKLLICLASSLESGVPARFSGSGSRTDFTLTIDPVEADDAATYYCQQNNEDPPTFGAGTKLELKR
notes: Mouse 19C12 variable regions with human constant regions (captured by anti-human Fc, detected by anti-human secondary); also called chi19C12; 19C12 chi
**Q.** Which results are given for B2?
**A.** IC50 (read off the curve) [4]: ~0.7 µg/mL; binding result [5]: no binding (tested: 5 ug/ml)
